Experiment [1] deals with T1, human furin, wild type (Homo sapiens).
T1 construct: furin, human; also called Furin^WT; source: purified
T1 chain: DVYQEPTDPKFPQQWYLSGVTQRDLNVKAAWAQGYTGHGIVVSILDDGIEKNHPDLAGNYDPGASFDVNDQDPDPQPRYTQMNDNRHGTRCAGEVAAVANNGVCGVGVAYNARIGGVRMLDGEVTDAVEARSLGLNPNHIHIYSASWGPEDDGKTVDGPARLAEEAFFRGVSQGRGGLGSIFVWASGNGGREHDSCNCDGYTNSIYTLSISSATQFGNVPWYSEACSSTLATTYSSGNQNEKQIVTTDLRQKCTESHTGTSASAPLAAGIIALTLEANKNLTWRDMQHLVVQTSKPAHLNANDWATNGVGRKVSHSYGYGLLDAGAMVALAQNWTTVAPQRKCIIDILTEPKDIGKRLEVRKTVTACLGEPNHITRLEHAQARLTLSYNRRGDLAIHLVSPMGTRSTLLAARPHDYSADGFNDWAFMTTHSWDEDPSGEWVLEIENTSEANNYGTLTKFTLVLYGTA
Description: SEC; analytical gel permeation chromatography, Superdex 200 5/150 GL, 10 mM Hepes, pH 7.5, 100 mM NaCl, 1 mM CaCl2; proteins premixed at equimolar ratio, ~23 μM each; 0.2 ml/min; peak fractions by SDS-PAGE. To be noted: both partners purified. For orientation: Size exclusion chromatography separates by hydrodynamic size, large species first.

Experiment [2] addresses T2, dec-RVKR-CMK-inhibited human furin (Homo sapiens, covalently inhibited by decanoyl-RVKR-chloromethylketone (dec-RVKR-CMK)).
T2 construct: furin, human; also called furin:RVKR-CMK; source: purified, complex with Nb14 purified by GPC
T2 chain: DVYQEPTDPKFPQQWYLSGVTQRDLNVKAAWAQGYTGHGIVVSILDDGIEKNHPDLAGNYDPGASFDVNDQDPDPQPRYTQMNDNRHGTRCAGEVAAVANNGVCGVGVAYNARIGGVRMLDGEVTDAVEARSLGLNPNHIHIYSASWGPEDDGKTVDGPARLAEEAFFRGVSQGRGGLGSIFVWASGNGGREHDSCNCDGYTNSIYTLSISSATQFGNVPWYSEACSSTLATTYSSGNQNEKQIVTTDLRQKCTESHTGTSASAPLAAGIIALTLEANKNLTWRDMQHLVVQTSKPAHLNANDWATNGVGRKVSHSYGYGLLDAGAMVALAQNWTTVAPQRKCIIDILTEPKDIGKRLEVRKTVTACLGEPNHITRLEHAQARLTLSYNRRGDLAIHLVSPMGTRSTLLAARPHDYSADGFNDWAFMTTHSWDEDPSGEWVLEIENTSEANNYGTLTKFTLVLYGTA
In words: crystal structure; furin:RVKR-CMK:Nb14 complex (~9 mg/ml in 10 mM Hepes, pH 7.5, 100 mM NaCl, 2 mM CaCl2) crystallised in 0.1 M sodium acetate, pH 5.6, 16-18% PEG 3350; two copies of the complex in the asymmetric unit. To be noted: both partners purified.

B1: inhibitory camelid antibody Nb14 (VHH)
VHH: QVQLQESGGGLVQPGGSLTLSCAASGFTFSSYSMYWVRQAPGKGLEWVSSINRVGSNTDYADSVKGRFTISRDNAKNTLYLQMNSLKSEDTALYYCAVGMYAAPPWRGQGTQVTVSS
notes: they are in the deposited structures PDB 5JMO (complex with furin) and PDB 5JMR (free Nb14); also called nanobody Nb14; source: purification in Supplementary Information
Regarding B1, the binding result in experiment [1] and in experiment [2] was “binds” throughout.

For the origin of these results see PMC5037460, “The structure of a furin-antibody complex explains non-competitive inhibition by steric exclusion of substrate conformers” (Scientific Reports, 2016).
